The results in this text go back to article PMC2580030 (PLoS ONE, 2008).

The experiment deals with recombinant soluble empty (peptide free) HLA-DR1 (human). Kind of experiment: fluorescence polarisation. The settings on record: both partners purified. A general note: Polarisation of emitted light reports the rotation of a fluorescent probe.

Ends that are not written are not given here.

B1: FAM-CLIP peptide (residues 87-101) (peptide)
peptide: {FAM}-PVSKMRMATPLLMQA
On to B1, for which the t1/2 is approximately 1.33 h.
